In assay [1] the target is Phosphorylated SARS-CoV-2 Nucleocapsid protein (pN), full length, phosphorylated in vitro with GSK-3β and SRPK1 (SARS-CoV-2) (UniProt P0DTC9). Description: […]; 20 mM Tris-HCl, 150 mM NaCl, pH 7.5, 37 °C.
Assay [2] concerns the target SARS-CoV-2 Nucleocapsid protein (N), full length, unmodified (SARS-CoV-2) (UniProt P0DTC9). Description: […]; 20 mM Tris-HCl, 150 mM NaCl, pH 7.5, 37 °C.
The target in assay [3] is Membrane (M) protein C-terminal endodomain, 104-222 (UniProt P0DTC5).
Assay [4] addresses non-structural protein 3 (Nsp3) ubiquitin-like domain 1 (Ubl1), 1-111.

As to “6xHis-GFP-M^104-222, C-terminal endodomain of the SARS-CoV-2 Membrane (M) protein (from UniProt P0DTC5 104-222) (domain or fragment)”, the partition coefficient is 0.3 in assay [1] and 9.8 in assay [2].
Taken in the same sequence, the figures for “6xHis-GFP-Nsp3^1-111, ubiquitin-like domain 1 (Ubl1) of SARS-CoV-2 non-structural protein 3 (Nsp3) (domain or fragment)” were 2.2 and 12.6.
As to “Nucleocapsid protein (N) (from UniProt P0DTC9)”, the “other: partition coefficient” value in assay [3] was “lost; reference 9.8 ± 0.3”; in assay [4] it was “weaker; reference 12.6 ± 0.1”.

Values taken from article PMC12381204.
